This data set can be described thus: protein stability index of a GFP-peptide fusion (GPS, HEK-293T) (PSI 1-6); higher = more stable. Particulars: c terminus: a fixed tail appended.

± gives the standard deviation.
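Also: 24-mer peptide tiles fused after GFP, lentivirally expressed, FACS-sorted into six equal bins by GFP/DsRed ratio, decoded by Illumina sequencing, PSI is the read-weighted mean bin number.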

Take MEKGPVRAPAEKPRGARCSNGFPE [GCH1]: the protein stability index turned out to be 4.46 ± 0.29 (treatment: DMSO) and 4.58 ± 0.25 (treatment: MLN4924 1 uM, 8 h).
The corresponding values for MEPGDIIGVAGNHWDGYSKGVNRK [FUT8] are 4.4 ± 0.22 and 4.6 ± 0.35.
For the sequence METSPSEEDSFYRSSYPQQQGLGA [TBX5], the protein stability index by setting is: (treatment: DMSO) 4.37 ± 0.073; (treatment: MLN4924 1 uM, 8 h) 4.47 ± 0.17.
Regarding MGSAADVRFSLGTTTHAPPGVHRR [PPFIA4], the protein stability index by setting is: (treatment: DMSO) 4.26 ± 0.3; (treatment: MLN4924 1 uM, 8 h) 4.51 ± 0.39.
The corresponding values for MKNKNNVTEFILLGLTQNPEGQKV [OR4A15] are 2.44 ± 0.31 and 2.99 ± 0.11.
The corresponding values for MLKFLAKGEVPKGSCEDEPMDSTM [ATE1] are 4.22 ± 0.3 and 4.36 ± 0.092.
Turning to MLWVQRKRRRKETSECPSDKDKSP [C10orf62], the protein stability index is, setting by setting: (treatment: DMSO) 3.2 ± 0.42; (treatment: MLN4924 1 uM, 8 h) 3.66 ± 0.43.
Regarding MNAVGSPEGQELQKLGSGAWDNPA [PKD2L1], the protein stability index stood at 4.59 ± 0.2 (treatment: DMSO) and 4.35 ± 0.27 (treatment: MLN4924 1 uM, 8 h).
The corresponding values for MPEFSSDSTMRILSNLVQHILKKY [RTP4] are 2.2 ± 0.39 and 2.52 ± 0.31.
For MPLKWKTSSPAIWKFPVPVLKTSR [KLHL13], the protein stability index stood at 2.46 ± 0.052 (treatment: DMSO) and 2.47 ± 0.44 (treatment: MLN4924 1 uM, 8 h).
In the case of MPRQISRQSSVTESTLYPNPYHQP [TPRG1], the protein stability index is, setting by setting: (treatment: DMSO) 3.73 ± 0.34; (treatment: MLN4924 1 uM, 8 h) 3.7 ± 0.25.
For MQERVQRLEAARLSLEEELSRVKA [LRRC45], the protein stability index is 4.25 ± 0.5 (treatment: DMSO) and 4.48 ± 0.27 (treatment: MLN4924 1 uM, 8 h).
The sequence MRHVEKMCKADLSRNFIERNHMEN [TRIM29] displayed a protein stability index (treatment: DMSO) of 3.05 ± 0.16 and a protein stability index (treatment: MLN4924 1 uM, 8 h) of 3.1 ± 0.12.
Take MRSAAVLALLLCAGQVTALPVNSP [CHGA]: the protein stability index by setting is: (treatment: DMSO) 3.21 ± 0.45; (treatment: MLN4924 1 uM, 8 h) 2.83 ± 0.57.
MSASLNYKSFSKEQQTMDNLEKQL [TRIM55] displayed a protein stability index (treatment: DMSO) of 4.71 ± 0.23 and a protein stability index (treatment: MLN4924 1 uM, 8 h) of 4.47 ± 0.14.
Regarding MSLKCLAARAVRANDINYQDQIPR [FEM1B], the protein stability index by setting is: (treatment: DMSO) 3.49 ± 0.34; (treatment: MLN4924 1 uM, 8 h) 3.52 ± 0.17.
In turn, MSQGPPTGESSEPEAKVLHTKRLY [SMG5] came in with a protein stability index (treatment: DMSO) of 4.81 ± 0.24 and a protein stability index (treatment: MLN4924 1 uM, 8 h) of 4.94 ± 0.15.
The corresponding values for MTKTVQYQNELHKFLIWDTAGQER [RAB22A] are 3.03 ± 0.23 and 3.14 ± 0.17.
Regarding MVTCKSEFYHDEFKRWIYLNDQNL [GAN], the protein stability index was 2.44 ± 0.43 (treatment: DMSO) and 2.25 ± 0.48 (treatment: MLN4924 1 uM, 8 h).
NAAKTCPTMPALFSDHTFRHYAYL [INTS4] had a protein stability index (treatment: DMSO) of 2.03 ± 0.42 and a protein stability index (treatment: MLN4924 1 uM, 8 h) of 2.13 ± 0.29.
The like results for NALKDARAKLDELEGALHQAKEEL [KRT71] were, in that order, 5.06 ± 0.38 and 4.97 ± 0.095.
For the sequence NATLTQYQLLATHVPTVWAIDQYR [RHOBTB2], the protein stability index came out at 2.61 ± 0.58 (treatment: DMSO) and 2.48 ± 0.31 (treatment: MLN4924 1 uM, 8 h).
In the case of NCLTGEGEDTRLSASEMKQLIDNI [CIB1], the protein stability index came to 4.67 ± 0.18 (treatment: DMSO) and 4.74 ± 0.32 (treatment: MLN4924 1 uM, 8 h).
For NCVLSSSPNPFPEISRGEYLYTYD [ZNF8], the protein stability index amounted to 2.76 ± 0.42 (treatment: DMSO) and 3.01 ± 0.3 (treatment: MLN4924 1 uM, 8 h).
Take NDVKHHRWFRSVDWEAVPQRKLKP [PRKX]: the protein stability index came to 3.65 ± 0.19 (treatment: DMSO) and 3.6 ± 0.24 (treatment: MLN4924 1 uM, 8 h).
The corresponding values for NETKSQAFVSNSPKLFCPKNRSFD [PLD5] are 4.21 ± 0.23 and 3.86 ± 0.54.
Turning to NFEEMRALLDSLPPPVESELALFQ [KLHL14], the protein stability index is 3.46 ± 0.45 (treatment: DMSO) and 3.91 ± 0.28 (treatment: MLN4924 1 uM, 8 h).
NFGLRLVVQRCSGQKWMIRNWIKH [GALNT9]: the protein stability index reads like this: (treatment: DMSO) 2.67 ± 0.32; (treatment: MLN4924 1 uM, 8 h) 2.06 ± 0.59.
In the case of NFRDLVRDLEKQKEEVRAALEQRE [TRIM29], the protein stability index was found to be 4.54 ± 0.11 (treatment: DMSO) and 4.43 ± 0.21 (treatment: MLN4924 1 uM, 8 h).
With NGAKELWFFLQSELKKLKNLEGNE [FUT8], the protein stability index reads like this: (treatment: DMSO) 2.45 ± 0.47; (treatment: MLN4924 1 uM, 8 h) 2.48 ± 0.33.
NGEYTLMPSPTDVVLPGAVSLRYS [ADAMTS4]: the protein stability index runs as follows: (treatment: DMSO) 3.23 ± 0.34; (treatment: MLN4924 1 uM, 8 h) 3.28 ± 0.41.
As for NGGVVQVGELLPCKICGRTFFPVA [ZC2HC1A], the protein stability index is, setting by setting: (treatment: DMSO) 2.42 ± 0.091; (treatment: MLN4924 1 uM, 8 h) 2.48 ± 0.47.
Turning to NGNGKNGGLEHVPSSSSIHNGDME [BNIP3L], the protein stability index runs as follows: (treatment: DMSO) 5.28 ± 0.2; (treatment: MLN4924 1 uM, 8 h) 5.28 ± 0.24.
In the case of NGWTCLHWACKRNHGQVVSYLLKS [ANKRD40], the protein stability index came to 2.72 ± 0.46 (treatment: DMSO) and 2.29 ± 0.43 (treatment: MLN4924 1 uM, 8 h).
The like results for NILLDKHRMVVKIGDFGISKILSS [NEK8] were, in that order, 2.19 ± 0.15 and 2.09 ± 0.17.
With NIRPADSRWVRDPRYREDPCKQCK [FBXO34], the protein stability index (treatment: DMSO) was 4.13 ± 0.36 and the protein stability index (treatment: MLN4924 1 uM, 8 h) was found to be 4.28 ± 0.13.

Values taken from the supplement of paper PMC10567573.
